Data reported in the supplement of paper PMC7877785.
± gives the uncertainty stated by the source.

Assay: self-splicing fitness, log relative to wild type (ln ratio); higher = more splicing; Tetrahymena group I intron in knt gene, E. coli kanamycin selection, DiMSum; sequences stand for … in CUCUCU…GGAGGGAAAAGUUAUCAGGCAUGCACCUGGUAGCUAGUCUUUAAACCAAUAGAUUGCAUCGGUUUAAAAGGCAAGACCGUCAAAUUGCGGGAAAGGGGUCAACAGCCGUUCAGUACCAAGUCUCAGGGGAAACUUUGAGAUGGCCUUGCAAAGGGUAUGGUAAUAAGCUGACGGACAUGGUCCUAACCACGCAGCCAAGUCCUAAGUCAACAGAUCUUCUGUUGAUAUGGAUGCAGUUCACAGACUAAAUGUCGGUCGGGGAAGAUGUAUUCUUCUCAUAAGAUAUAGUCGGACCUCUCCUUAAUGGGAGCUAGCGGAUGAAGUGAUGCAACACUGGAGCCGCUGGGAACUAAUUUGUAUGCGAAAGUAUAUUGAUUAGUUUUGGAGUACUCGUGGUCG
How it was run: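 Colonies from six replicate transformations of E. coli BL21(DE3) were pooled and amplicon-sequenced on an Illumina HiSeq 2500. The library placed an intron with all eight P1ex-region nucleotides randomised inside the knt kanamycin-resistance gene on pET-22b(+), and cells grew overnight at 37°C or 30°C on LB agar with or without 25 μg/mL kanamycin (plus 100 μg/mL carbenicillin, 50 μM IPTG, 0.2% rhamnose). Fitness is the DiMSum error-weighted combination of wild-type-normalised replicate fold changes, kanamycin versus none.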

Sequence | self-splicing fitness (ln) (30 °C) | self-splicing fitness (ln) (37 °C)
UGAUAGCAAUAUUACGCCGG | -1.5 ± 0.22 | 0.564 ± 0.23
CGUCAGCAAUAUUACGGCCU | -0.913 ± 0.17 | -1.79 ± 0.29
UCCCAGCAAUAUUACGUAGA | -0.0439 ± 0.054 | 0.435 ± 0.073
AAAGAGCAAUAUUACGUGAC | -4.21 ± 0.21 | -2.62 ± 0.2
CACGAGCAAUAUUACGAACU |  | -1.72 ± 0.38
GUGUAGCAAUAUUACGGGGA | -1.9 ± 0.28 | -2.41 ± 0.25
AUCGAGCAAUAUUACGGUAC |  | -2.51 ± 0.41
AGAGAGCAAUAUUACGUGAA | -2.82 ± 0.3 | -2.16 ± 0.29
AGUGAGCAAUAUUACGCCGU | -2.39 ± 0.38 | 
AAAGAGCAAUAUUACGACUG | -3 ± 0.32 | 
AUUCAGCAAUAUUACGAAGG | -1.02 ± 0.087 | -0.355 ± 0.12
AUGUAGCAAUAUUACGGUCC | -1.32 ± 0.1 | 0.341 ± 0.12
UCAAAGCAAUAUUACGUCCG | -0.781 ± 0.12 | -0.625 ± 0.16
CAGGAGCAAUAUUACGUCUU | -2.33 ± 0.095 | -2.16 ± 0.11
GAUGAGCAAUAUUACGGCUU | -2.34 ± 0.14 | -1.12 ± 0.14
UGACAGCAAUAUUACGAAAA | -2.4 ± 0.35 | -1.29 ± 0.19
UUCAAGCAAUAUUACGAUCU | -1.59 ± 0.092 | -0.996 ± 0.089
UACUAGCAAUAUUACGAGAA | -1.6 ± 0.33 | -0.769 ± 0.22
UAUGAGCAAUAUUACGAAGG | -3.5 ± 0.2 | -1.4 ± 0.22
GUGCAGCAAUAUUACGGUUC | -0.353 ± 0.075 | -0.684 ± 0.11
AAUCAGCAAUAUUACGCAGU | -0.402 ± 0.066 | -0.257 ± 0.078
AUCGAGCAAUAUUACGCCAC |  | -2.54 ± 0.45
ACAUAGCAAUAUUACGAGCC | -3.94 ± 0.36 | -2.42 ± 0.28
AAUAAGCAAUAUUACGGCUG | -0.2 ± 0.085 | 0.42 ± 0.1
AGCCAGCAAUAUUACGAGAA | -2.99 ± 0.36 | -1.42 ± 0.3

Sequence | self-splicing fitness (ln) (30 °C) | self-splicing fitness (ln) (37 °C)
UCUGAGCAAUAUUACGAUGU | -2.72 ± 0.15 | -0.718 ± 0.16
AACCAGCAAUAUUACGGAGU | -1.66 ± 0.048 | -0.881 ± 0.064
GUAAAGCAAUAUUACGACGC | 0.577 ± 0.16 | 0.0941 ± 0.19
UGCUAGCAAUAUUACGCUCC | -2.06 ± 0.23 | -0.757 ± 0.24
AGACAGCAAUAUUACGUCUA | -1.31 ± 0.097 | -0.608 ± 0.099
CCGUAGCAAUAUUACGUGGA | -3.1 ± 0.32 | -2.84 ± 0.21
AACAAGCAAUAUUACGGGCC | -2.99 ± 0.25 | 0.104 ± 0.19
CAUAAGCAAUAUUACGUUCU | -3.28 ± 0.23 | -3.1 ± 0.3
AGGUAGCAAUAUUACGACUA | -0.0242 ± 0.016 | 0.141 ± 0.034
CCUCAGCAAUAUUACGCGCG | -2.78 ± 0.13 | -1.45 ± 0.13
UGAUAGCAAUAUUACGAACA | -0.502 ± 0.18 | 0.324 ± 0.26
UGGGAGCAAUAUUACGUUCG | -1.34 ± 0.22 | -0.604 ± 0.3
CUGAAGCAAUAUUACGCGUC | -3.62 ± 0.33 | -3.55 ± 0.35
GAAUAGCAAUAUUACGUUCU | -3.24 ± 0.26 | -1.82 ± 0.27
GAUUAGCAAUAUUACGUGGG | -3.52 ± 0.32 | -2.47 ± 0.27
UACGAGCAAUAUUACGACGA | -1.85 ± 0.18 | -0.325 ± 0.13
UUAGAGCAAUAUUACGUCGA | -1.18 ± 0.12 | 0.172 ± 0.14
CUUCAGCAAUAUUACGCGCG | -0.941 ± 0.056 | -0.367 ± 0.087
CGGUAGCAAUAUUACGUUUC | -2.48 ± 0.32 | 
UUCAAGCAAUAUUACGGUCC | -1.46 ± 0.25 | -2.3 ± 0.42
CAAUAGCAAUAUUACGUGGG | -3.7 ± 0.15 | -3.49 ± 0.21
CCACAGCAAUAUUACGUCUA | -3.53 ± 0.24 | -2.43 ± 0.17
UGCAAGCAAUAUUACGAUAA | -0.8 ± 0.1 | -0.087 ± 0.12
UCACAGCAAUAUUACGUCCU | -3.15 ± 0.19 | -2.27 ± 0.15
UCGUAGCAAUAUUACGUUCG | -1.45 ± 0.071 | -0.735 ± 0.086

Sequence | self-splicing fitness (ln) (30 °C) | self-splicing fitness (ln) (37 °C)
AAUGAGCAAUAUUACGAUUC | -3.1 ± 0.26 | -2.43 ± 0.26
AGAGAGCAAUAUUACGUUUA |  | -2.08 ± 0.33
GAGGAGCAAUAUUACGUAGC | -0.914 ± 0.2 | -1.02 ± 0.37
CAUCAGCAAUAUUACGUCCG | -0.619 ± 0.059 | 0.497 ± 0.088
CGCCAGCAAUAUUACGGCGG | -2.23 ± 0.13 | -1.83 ± 0.17
CAGGAGCAAUAUUACGGUUC | -2.71 ± 0.43 | -1.74 ± 0.28
CAAAAGCAAUAUUACGUCUG | -0.838 ± 0.042 | -0.0271 ± 0.052
AGAAAGCAAUAUUACGUUAG | -2.91 ± 0.19 | -2.69 ± 0.18
GGCAAGCAAUAUUACGGGGU | -2.5 ± 0.099 | -0.776 ± 0.094
AUCCAGCAAUAUUACGCAGC | -1.43 ± 0.13 | -1.26 ± 0.2
AGGGAGCAAUAUUACGCAUU | -3.7 ± 0.37 | 
GCCAAGCAAUAUUACGUAGG | -3.32 ± 0.18 | -1.78 ± 0.17
UUCGAGCAAUAUUACGUCUG | -2.57 ± 0.24 | -1.65 ± 0.22
GCUGAGCAAUAUUACGCGAG | -2.52 ± 0.16 | -1.83 ± 0.23
AACCAGCAAUAUUACGGUAU | -2 ± 0.071 | -0.457 ± 0.08
GAUAAGCAAUAUUACGCUAC | -2.85 ± 0.4 | -2.31 ± 0.34
CCGGAGCAAUAUUACGAUCA | -3.1 ± 0.42 | -2.63 ± 0.44
UAUUAGCAAUAUUACGAGUA | -0.732 ± 0.25 | -0.0897 ± 0.24
UACGAGCAAUAUUACGCUGG | -3.2 ± 0.27 | -1.77 ± 0.16
CGGCAGCAAUAUUACGGUUC | -2.16 ± 0.093 | -0.799 ± 0.098
ACCAAGCAAUAUUACGACUU | -3.83 ± 0.19 | -1.85 ± 0.12
UGCUAGCAAUAUUACGGCGU | -3.57 ± 0.22 | -1.89 ± 0.17
CACAAGCAAUAUUACGACCC | -2.15 ± 0.4 | -0.814 ± 0.24
CUCUAGCAAUAUUACGGACG | -0.959 ± 0.14 | -0.0675 ± 0.16
CCUAAGCAAUAUUACGUAAG | -0.318 ± 0.064 | -0.35 ± 0.087

Sequence | self-splicing fitness (ln) (30 °C) | self-splicing fitness (ln) (37 °C)
CAAUAGCAAUAUUACGCACC | -3.66 ± 0.3 | 
AAAGAGCAAUAUUACGCGUG | -3.02 ± 0.14 | -1.79 ± 0.12
GCCGAGCAAUAUUACGACUU | -1.04 ± 0.31 | -0.625 ± 0.34
AACUAGCAAUAUUACGGAUA | -2.79 ± 0.25 | -1.2 ± 0.23
CGAGAGCAAUAUUACGCUUU |  | -2.33 ± 0.39
AGCGAGCAAUAUUACGUAAU | -3.21 ± 0.14 | -2.04 ± 0.14
UGGGAGCAAUAUUACGAGGA |  | -3.9 ± 0.47
AUGAAGCAAUAUUACGCAUC | -4.84 ± 0.29 | -2.45 ± 0.17
CGGUAGCAAUAUUACGGGUU | -3.51 ± 0.21 | -3.67 ± 0.22
UGAAAGCAAUAUUACGGCGC | -1.78 ± 0.21 | -0.486 ± 0.23
AUUGAGCAAUAUUACGUAUA | -2.67 ± 0.28 | -2.98 ± 0.32
UUGGAGCAAUAUUACGCGGC |  | -1.26 ± 0.41
UAAGAGCAAUAUUACGAGAG | -2.23 ± 0.38 | -1.95 ± 0.36
GGUAAGCAAUAUUACGCAUU | -1.86 ± 0.14 | -0.797 ± 0.12
CGCGAGCAAUAUUACGGGUC | -3.27 ± 0.2 | -2.38 ± 0.31
GGGAAGCAAUAUUACGAUCC | -2.12 ± 0.22 | -1.11 ± 0.35
UUCAAGCAAUAUUACGUGCC | -0.891 ± 0.15 | -0.528 ± 0.17
GAUUAGCAAUAUUACGAUCU | -0.776 ± 0.2 | -2.2 ± 0.38
UGAGAGCAAUAUUACGGUGC | -2.02 ± 0.21 | 
GUGGAGCAAUAUUACGUGGU | -2.9 ± 0.27 | -2.51 ± 0.28
CGCCAGCAAUAUUACGGCGU | -3.63 ± 0.46 | -2.17 ± 0.23
ACAGAGCAAUAUUACGGCCG | -2.2 ± 0.27 | -1.33 ± 0.25
UAGUAGCAAUAUUACGUAAC | -3.54 ± 0.15 | -1.89 ± 0.15
AUAAAGCAAUAUUACGGUCU | -0.245 ± 0.061 | 0.47 ± 0.088
